According to article PMC8456507:

Target: rYY1 (UniProt Q00899 1-414)
Assay: pull-down

Chain of rYY1 (Q00899 whole entry): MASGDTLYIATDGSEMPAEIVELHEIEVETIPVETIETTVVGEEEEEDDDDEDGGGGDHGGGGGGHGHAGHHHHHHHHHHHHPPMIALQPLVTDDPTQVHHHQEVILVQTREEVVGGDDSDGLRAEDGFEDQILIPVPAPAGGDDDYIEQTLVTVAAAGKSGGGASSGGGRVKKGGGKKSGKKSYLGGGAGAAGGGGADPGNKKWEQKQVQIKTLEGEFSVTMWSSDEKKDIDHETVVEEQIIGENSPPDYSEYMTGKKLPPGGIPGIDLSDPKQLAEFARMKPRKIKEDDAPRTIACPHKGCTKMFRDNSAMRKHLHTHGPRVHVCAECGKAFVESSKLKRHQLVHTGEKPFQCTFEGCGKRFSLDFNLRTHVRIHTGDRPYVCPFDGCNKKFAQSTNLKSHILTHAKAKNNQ

B1: NCR (dsDNA)
DNA 1: AGCTTAAGTAACGCCATTTTGCAAGGCA
DNA 2: TGCCTTGCAAAATGGCGTTACTTAAGCT
binding result: binds

B2: NCRm (dsDNA)
DNA 1: AGCTTAAGTAATACGGCTATGCAAGGCA
DNA 2: TGCCTTGCATAGCCGTATTACTTAAGCT
binding result: no binding
